Starred links: 1 amine or outer side, 2 acyl side, 3 side chain; linkers in the order of their positions; H or OH if unused. Non-standard residues stand in square brackets, D forms with d. Groups on a side chain read outwards from the residue. No end group written: not given here. *: point of attachment. C18 diacid = O=C(O)CCCCCCCCCCCCCCCCC(=O)*; γGlu = O=C(O)[C@H](CCC(=O)[*:2])N[*:1]; αMeF = C[C@](N)(Cc1ccccc1)C(=O)O; AEEA = NCCOCCOCC(=O)O; Aib = CC(C)(N)C(=O)O
Assays:
human GLP-1 receptor = human GLP-1 receptor (human, UniProt P43220); assay: cell-based or functional assay
human glucagon receptor = human glucagon receptor (human, UniProt P47871); assay: cell-based or functional assay

B1: Peptide 19 (peptide)
peptide: H[Aib]HGS[αMeF]TSDVSK[αMeF]LDSK([AEEA-AEEA-γGlu-γGlu-C18 diacid])AARD[αMeF]VQ[Aib]IANT-NH2
modifications: N-terminus assumed
SMILES: CC[C@H](C)[C@H](NC(=O)C(C)(C)NC(=O)[C@H](CCC(N)=O)NC(=O)[C@@H](NC(=O)[C@](C)(Cc1ccccc1)NC(=O)[C@H](CC(=O)O)NC(=O)[C@H](CCCNC(=N)N)NC(=O)[C@H](C)NC(=O)[C@H](C)NC(=O)[C@H](CCCCNC(=O)COCCOCCNC(=O)COCCOCCNC(=O)CC[C@H](NC(=O)CC[C@H](NC(=O)CCCCCCCCCCCCCCCCC(=O)O)C(=O)O)C(=O)O)NC(=O)[C@H](CO)NC(=O)[C@H](CC(=O)O)NC(=O)[C@H](CC(C)C)NC(=O)[C@](C)(Cc1ccccc1)NC(=O)[C@H](CCCCN)NC(=O)[C@H](CO)NC(=O)[C@@H](NC(=O)[C@H](CC(=O)O)NC(=O)[C@H](CO)NC(=O)[C@@H](NC(=O)[C@](C)(Cc1ccccc1)NC(=O)[C@H](CO)NC(=O)CNC(=O)[C@H](Cc1c[nH]cn1)NC(=O)C(C)(C)NC(=O)[C@@H](N)Cc1c[nH]cn1)[C@@H](C)O)C(C)C)C(C)C)C(=O)N[C@@H](C)C(=O)N[C@@H](CC(N)=O)C(=O)N[C@H](C(N)=O)[C@@H](C)O
For B1, the “cAMP production, hGLP-1R EC50 (pM)” value (human GLP-1 receptor) was 38.3 pM and the “cAMP production, hGluc-R EC50 (pM)” value (human glucagon receptor) was 133 pM.

B2: Peptide 15 (peptide)
peptide: H[Aib]HGS[αMeF]TSDVSK[αMeF]LDSK([AEEA-AEEA-γGlu-C18 diacid])AARD[αMeF]VE[Aib]IANT-NH2
modifications: N-terminus assumed
SMILES: CC[C@H](C)[C@H](NC(=O)C(C)(C)NC(=O)[C@H](CCC(=O)O)NC(=O)[C@@H](NC(=O)[C@](C)(Cc1ccccc1)NC(=O)[C@H](CC(=O)O)NC(=O)[C@H](CCCNC(=N)N)NC(=O)[C@H](C)NC(=O)[C@H](C)NC(=O)[C@H](CCCCNC(=O)COCCOCCNC(=O)COCCOCCNC(=O)CC[C@H](NC(=O)CCCCCCCCCCCCCCCCC(=O)O)C(=O)O)NC(=O)[C@H](CO)NC(=O)[C@H](CC(=O)O)NC(=O)[C@H](CC(C)C)NC(=O)[C@](C)(Cc1ccccc1)NC(=O)[C@H](CCCCN)NC(=O)[C@H](CO)NC(=O)[C@@H](NC(=O)[C@H](CC(=O)O)NC(=O)[C@H](CO)NC(=O)[C@@H](NC(=O)[C@](C)(Cc1ccccc1)NC(=O)[C@H](CO)NC(=O)CNC(=O)[C@H](Cc1c[nH]cn1)NC(=O)C(C)(C)NC(=O)[C@@H](N)Cc1c[nH]cn1)[C@@H](C)O)C(C)C)C(C)C)C(=O)N[C@@H](C)C(=O)N[C@@H](CC(N)=O)C(=O)N[C@H](C(N)=O)[C@@H](C)O
B2 was tested, and the “cAMP production, hGLP-1R EC50 (pM)” value (human GLP-1 receptor) was 33.1 pM and the “cAMP production, hGluc-R EC50 (pM)” value (human glucagon receptor) was 61.4 pM.

B3: Peptide 17 (peptide)
peptide: H[Aib]HGS[αMeF]TSDVSK[αMeF]LDSK([AEEA-AEEA-γGlu-C18 diacid])AARD[αMeF]VESIANT-NH2
modifications: N-terminus assumed
SMILES: CC[C@H](C)[C@H](NC(=O)[C@H](CO)NC(=O)[C@H](CCC(=O)O)NC(=O)[C@@H](NC(=O)[C@](C)(Cc1ccccc1)NC(=O)[C@H](CC(=O)O)NC(=O)[C@H](CCCNC(=N)N)NC(=O)[C@H](C)NC(=O)[C@H](C)NC(=O)[C@H](CCCCNC(=O)COCCOCCNC(=O)COCCOCCNC(=O)CC[C@H](NC(=O)CCCCCCCCCCCCCCCCC(=O)O)C(=O)O)NC(=O)[C@H](CO)NC(=O)[C@H](CC(=O)O)NC(=O)[C@H](CC(C)C)NC(=O)[C@](C)(Cc1ccccc1)NC(=O)[C@H](CCCCN)NC(=O)[C@H](CO)NC(=O)[C@@H](NC(=O)[C@H](CC(=O)O)NC(=O)[C@H](CO)NC(=O)[C@@H](NC(=O)[C@](C)(Cc1ccccc1)NC(=O)[C@H](CO)NC(=O)CNC(=O)[C@H](Cc1c[nH]cn1)NC(=O)C(C)(C)NC(=O)[C@@H](N)Cc1c[nH]cn1)[C@@H](C)O)C(C)C)C(C)C)C(=O)N[C@@H](C)C(=O)N[C@@H](CC(N)=O)C(=O)N[C@H](C(N)=O)[C@@H](C)O
For B3, the “cAMP production, hGLP-1R EC50 (pM)” value (human GLP-1 receptor) was 45 pM and the “cAMP production, hGluc-R EC50 (pM)” value (human glucagon receptor) was 135 pM.

B4: Peptide 16 (peptide)
peptide: H[Aib]HGS[αMeF]TSDVSK[αMeF]LDSK([AEEA-AEEA-γGlu-C18 diacid])AARD[αMeF]IA[Aib]IANT-NH2
modifications: N-terminus assumed
SMILES: CC[C@H](C)[C@H](NC(=O)C(C)(C)NC(=O)[C@H](C)NC(=O)[C@@H](NC(=O)[C@](C)(Cc1ccccc1)NC(=O)[C@H](CC(=O)O)NC(=O)[C@H](CCCNC(=N)N)NC(=O)[C@H](C)NC(=O)[C@H](C)NC(=O)[C@H](CCCCNC(=O)COCCOCCNC(=O)COCCOCCNC(=O)CC[C@H](NC(=O)CCCCCCCCCCCCCCCCC(=O)O)C(=O)O)NC(=O)[C@H](CO)NC(=O)[C@H](CC(=O)O)NC(=O)[C@H](CC(C)C)NC(=O)[C@](C)(Cc1ccccc1)NC(=O)[C@H](CCCCN)NC(=O)[C@H](CO)NC(=O)[C@@H](NC(=O)[C@H](CC(=O)O)NC(=O)[C@H](CO)NC(=O)[C@@H](NC(=O)[C@](C)(Cc1ccccc1)NC(=O)[C@H](CO)NC(=O)CNC(=O)[C@H](Cc1c[nH]cn1)NC(=O)C(C)(C)NC(=O)[C@@H](N)Cc1c[nH]cn1)[C@@H](C)O)C(C)C)[C@@H](C)CC)C(=O)N[C@@H](C)C(=O)N[C@@H](CC(N)=O)C(=O)N[C@H](C(N)=O)[C@@H](C)O
B4 was tested, and the “cAMP production, hGLP-1R EC50 (pM)” value (human GLP-1 receptor) was 33 pM and the “cAMP production, hGluc-R EC50 (pM)” value (human glucagon receptor) was 105 pM.

B5: Peptide 18 (peptide)
peptide: H[Aib]HGS[αMeF]TSDVSK[αMeF]LDSK([AEEA-AEEA-γGlu-C18 diacid])AARD[αMeF]VQSIANT-NH2
modifications: N-terminus assumed
SMILES: CC[C@H](C)[C@H](NC(=O)[C@H](CO)NC(=O)[C@H](CCC(N)=O)NC(=O)[C@@H](NC(=O)[C@](C)(Cc1ccccc1)NC(=O)[C@H](CC(=O)O)NC(=O)[C@H](CCCNC(=N)N)NC(=O)[C@H](C)NC(=O)[C@H](C)NC(=O)[C@H](CCCCNC(=O)COCCOCCNC(=O)COCCOCCNC(=O)CC[C@H](NC(=O)CCCCCCCCCCCCCCCCC(=O)O)C(=O)O)NC(=O)[C@H](CO)NC(=O)[C@H](CC(=O)O)NC(=O)[C@H](CC(C)C)NC(=O)[C@](C)(Cc1ccccc1)NC(=O)[C@H](CCCCN)NC(=O)[C@H](CO)NC(=O)[C@@H](NC(=O)[C@H](CC(=O)O)NC(=O)[C@H](CO)NC(=O)[C@@H](NC(=O)[C@](C)(Cc1ccccc1)NC(=O)[C@H](CO)NC(=O)CNC(=O)[C@H](Cc1c[nH]cn1)NC(=O)C(C)(C)NC(=O)[C@@H](N)Cc1c[nH]cn1)[C@@H](C)O)C(C)C)C(C)C)C(=O)N[C@@H](C)C(=O)N[C@@H](CC(N)=O)C(=O)N[C@H](C(N)=O)[C@@H](C)O
In the case of B5, the “cAMP production, hGLP-1R EC50 (pM)” value (human GLP-1 receptor) is reported as 20.5 pM and the “cAMP production, hGluc-R EC50 (pM)” value (human glucagon receptor) is reported as 122 pM.

— patent publication US12630600B2 (MEDIMMUNE LIMITED, priority 2022, dated 2026)
